Measurements published in article PMC7907199, “Prokaryotic Argonaute from Archaeoglobus fulgidus interacts with DNA as a homodimer” (Scientific Reports, 2020).

Experiments:
[1] = target: AfAgoΔ (dimerization mutant of AfAgo lacking residues 296–303) (Archaeoglobus fulgidus) (UniProt O28951)
[2] = target: the molecule itself; test: cell-based or functional assay
[3] = target: the molecule itself; test: SEC-MALS; apo proteins without nucleic acids; 1.0 mg/mL (20 µM monomer), 2.0 mL injected; HiLoad 16/60 Superdex 200; 100 mM Tris–HCl pH 8.0, 1000 mM NaCl, 0.04% NaN3; dimer to monomers
[4] = target: T1, AfAgoΔ (dimerization mutant) (Archaeoglobus fulgidus (ATCC 49558), UniProt O28951 1-427, del296-303); test: SEC-MALS; 5 mM MgCl2; 5 uM protein monomer, 5 uM duplex; major peak 1:1 protein:DNA; SEC-MALS of complexes: 15 mM Tris-HCl pH 8.0, 150 mM NaCl, 5 mM MgCl2, 0.5 mM DTT, 0.04% NaN3; EMSA, AFM and smFRET buffers not in the material; conditions: protein: recombinant; blunt; self-complementary, 2 copies of the strand
T1 sequence: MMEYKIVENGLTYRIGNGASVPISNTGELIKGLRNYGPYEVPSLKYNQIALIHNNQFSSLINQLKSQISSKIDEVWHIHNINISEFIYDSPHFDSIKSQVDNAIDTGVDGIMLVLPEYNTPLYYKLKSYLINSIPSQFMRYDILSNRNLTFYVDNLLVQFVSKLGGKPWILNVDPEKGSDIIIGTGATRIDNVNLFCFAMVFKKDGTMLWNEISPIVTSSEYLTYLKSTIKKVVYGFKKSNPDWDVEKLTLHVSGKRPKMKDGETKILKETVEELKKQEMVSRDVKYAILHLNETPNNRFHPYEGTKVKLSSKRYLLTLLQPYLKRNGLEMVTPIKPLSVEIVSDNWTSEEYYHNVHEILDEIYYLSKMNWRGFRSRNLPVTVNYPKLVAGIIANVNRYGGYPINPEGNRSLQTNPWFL

WT AfAgo = target: T2, WT AfAgo (Archaeoglobus fulgidus (ATCC 49558), UniProt O28951 1-427); test: SEC-MALS; 5 mM MgCl2; 5 uM protein monomer, 5 uM duplex; mostly 2:2 protein:DNA; SEC-MALS of complexes: 15 mM Tris-HCl pH 8.0, 150 mM NaCl, 5 mM MgCl2, 0.5 mM DTT, 0.04% NaN3; EMSA, AFM and smFRET buffers not in the material; conditions: protein: recombinant; chain copies: 2; blunt; self-complementary, 2 copies of the strand
T2 sequence: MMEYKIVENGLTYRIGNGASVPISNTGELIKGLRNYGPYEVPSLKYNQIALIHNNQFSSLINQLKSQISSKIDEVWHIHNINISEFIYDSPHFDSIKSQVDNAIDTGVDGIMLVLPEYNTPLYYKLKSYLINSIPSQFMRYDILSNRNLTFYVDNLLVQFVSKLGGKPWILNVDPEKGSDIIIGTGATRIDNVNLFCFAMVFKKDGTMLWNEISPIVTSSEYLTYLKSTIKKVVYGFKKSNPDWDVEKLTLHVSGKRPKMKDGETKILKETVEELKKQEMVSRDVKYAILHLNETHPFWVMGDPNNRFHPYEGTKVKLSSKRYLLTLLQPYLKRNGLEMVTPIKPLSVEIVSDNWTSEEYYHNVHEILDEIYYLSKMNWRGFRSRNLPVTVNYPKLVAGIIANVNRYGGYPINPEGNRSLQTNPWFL

Molecule: AfAgoΔ (dimerization mutant of AfAgo lacking residues 296–303) (from UniProt O28951 1-427) (natural protein)
- AFM: DNA loops, % of protein–DNA complexes [1]: 26%

B1: WT AfAgo (prokaryotic Argonaute from Archaeoglobus fulgidus, full-length wild type) (natural protein, UniProt O28951 1-427, looked up)
chain: T2 sequence
notes: The printed theoretical Mw of the monomer in the assays (50.8 kDa) is 49.2 kDa plus the 1.63 kDa tag, so the tag was on the protein; In some assays the protein carried a 5'-phosphorylated DNA duplex (MZ-1289) or a long DNA fragment; also called apo-AfAgo; source: E. coli BL21(DE3), purified (Ni2+ HiTrap chelating, RNase A/T1 treatment, HiTrap Heparin, Superdex 200)
- smFRET in solution: DNA looping efficiency K (ratio of looped to unlooped dual-labelled 569 bp DNA) against WT AfAgo concentration; maximum at 2 nM, lower at higher concentrations [2]: 2.5
- stoichiometry N [3]: 2

B2: MZ-1289 oligoduplex (dsDNA)
DNA 1: ATTGTACGTACAAT
DNA 2: ATTGTACGTACAAT
modifications: 5'-phosphate
- binding result [4]: binds
- binding result (WT AfAgo): binds
